Results from the nanobody polyreactivity screen of Harvey et al. (2022).

Experiment: yeast display, Sf9 membrane polyspecificity reagent, FACS + sequencing; frameworks hold sequencing errors
Summary of the method: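 Nanobodies came from a synthetic yeast display library in Saccharomyces cerevisiae BJ5465, induced with galactose for 36–48 hours and stained for 1 hour at 4 °C with 10% biotinylated, detergent-solubilized Sf9 membrane reagent. Cells were enriched on streptavidin microbeads and then FACS-sorted, with low and high (top ~1%) gates set on anti-HA fluorescence for expression and streptavidin fluorescence for reagent binding. Each polyreactivity label reflects the gate a clone came from. Genes were amplified by colony PCR, sequenced by MiSeq 2 × 250 and filtered by CDR length.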

Sequence | polyreactivity (PSR sort gate)
QVQLVESGGGLVQAGGSLRLSCAASGRIFHSYAMGWYRQAPGKERELVASITWDSTSTNYADSVKGRFTISRDNAKNTVYLQMNSLKPEDTAVYYCNADESRYGFGYDYWGQGTQVTVSS | low polyreactivity
QVQLVESGGGLVQAGGSLRLSCAASGRIFHVNAMGWYRQAPGKEMDLVAAISTSGGRTYYADSVKGRFTISRDNAKNTVYLQMNSLKPEDTAVYYCAAVSRAPGLRYDYWGQGTQVTVSS | high polyreactivity
QVQLVESGGGLVQAGGSLRLSCAASGRIFHWYAMGWYRQAPGKERELVAAIRWTGGSTYYADSVKGRFTISRDNAKNTVYLQMNSLKREDTAVYYCAAKGYTGIFYEMDYWGQGTQVTVSS | low polyreactivity
QVQLVESGGGLVQAGGSLRLSCAASGRIFHYNTMGWYRQAPGKERELVAAITSSGGSTYYADSVKGRFTISRDNAKNTVYLQMNSLKPEDTAVYYCNAVFYRYGYKVDYWGQGTQVTVSS | high polyreactivity
QVQLVESGGGLVQAGGSLRLSCAASGRIFHYYAMGWYIKAPGKERELVAAITSSGGSTYYADSVKGRFTISRDNAKNTVYLKMNSLKPEDTAVYYCAARGRRVSAYYYWGQGTQVTVSS | high polyreactivity
QVQLVESGGGLVQAGGSLRLSCAASGRIFHYYAMGWYRQAPGKERELVAAISYSGTRTYYADSVKGRFTISRDNAKNTVYLQMNSLNPEDTAVYYCNAARSTNFDYWGQGTQVTVSS | high polyreactivity
QVQLVESGGGLVQAGGSLRLSCAASGRIFHYYAMGWYRQAPGKERELVADSSWSGGRTYYADSVKGRFTISRDNAKNTVYLQMNSLKPEDTAVYYCAAGHSYRPYYYYGEYDYWGQGTQVTVSS | high polyreactivity
QVQLVESGGGLVQAGGSLRLSCAASGRIFIDYAMGWYRQAPGKERELVATITSSGGSTYYADSVKGRFTISRDNAKNTVYLQMNSLKPEDTAVYYCNKEGSYDYDFWGQGTQVTVSS | low polyreactivity
QVQLVESGGGLVQAGGSLRLSCAASGRIFIGNAMGWYRQAPGKERELVAAISRRGGTTYYADSVKGRFTISRDNAKNTVYLQMNSLKPEDTAVYYCNKEWTYEHGYWGQGTQVTVSS | high polyreactivity
QVQLVESGGGLVQAGGSLRLSCAASGRIFIGNAMGWYRQAPGKERELVAAITQSGGSTYYADSVKGRFTISRDNAKNTVYLQMNSLKPEDTAVYYCSKALRRPRSGGNPGQAYGYWGQGTQVTVSS | low polyreactivity
QVQLVESGGGLVQAGGSLRLSCAASGRIFIGYAMGWYRQAPGKERELVAAISRSGGSTYYADSVKGRFTISRDNAKYTVYLQMNSLKPEDTAVYYCAASPPFGYYYWGQGTQVTVSS | high polyreactivity
QVQLVESGGGLVQAGGSLRLSCAASGRIFIGYAMGWYRQAPGKERELVAAITSGGGTYYADSVKGRFTISRDNAKNTVYLQMNSLKPEDTAVYYCAAAQRYPIKYYYWGQGTQVTVSS | low polyreactivity
QVQLVESGGGLVQAGGSLRLSCAASGRIFIIYAMGWYRQAPGTEREFVAAITSSGGSTYYADSVKGRFTISRDNAKNTVYLQMNSLKPEDTAVYYSAADSTEYTGDASYIGYDYWGQGTQVTVSS | high polyreactivity
QVQLVESGGGLVQAGGSLRLSCAASGRIFIKNAMGWNRQAPGKERELVAAISDSGDSTYYADSVKGRFTISRDNAKNSVYLQMNSLKPEDTAVYYCAADGADHRSEMYYWGQGTQVTVSS | low polyreactivity
QVQLVESGGGLVQAGGSLRLSCAASGRIFILNTMGWYRQAPGKERELVAGISYSGSTYYADSVKGRFTISRDNAKNTVYLQMNSMKPEDTAVYYCAADYDAAWYNDGYYYWGQGTQVTVSS | low polyreactivity
QVQLVESGGGLVQAGGSLRLSCAASGRIFIPYAMAWYRQAPGNERELVAAISSSGGSTYYADSVKGRFTISRDNAKNTVYLQMNSLKPEDTAVYYCSALLYWWYAYETYSSLFEYDYWGQGTLVTVSS | low polyreactivity
QVQLVESGGGLVQAGGSLRLSCAASGRIFIRNAMGWYRQAPGKEREFVAAISYGGSTYYADSVKGRFTISRDNAKNTVYLQMNSLKPEDTAVYYCAARVLPYLTPRRQMYYWGQGTQVTVSS | low polyreactivity
QVQLVESGGGLVQAGGSLRLSCAASGRIFIRNAMGWYRQAPGKERELVAAITSDGGSTDYADSVKGRFTISRDNAKNTVYLQMNSLIPEDTAVYYCAATGSGYDYWGQGTQVTVSS | low polyreactivity
QVQLVESGGGLVQAGGSLRLSCAASGRIFIRYAMGSYRQAPGKERELVAAITYSGGRTYYADSVKGRFTISRDNAKNTVYLQMNSLKPEDTAVYYCAADAPYGEDYWGQGTQVTVSS | high polyreactivity
QVQLVESGGGLVQAGGSLRLSCAASGRIFITNTMGWSRPAPGKERELVAAISRTGGSTYYADSVKGRFTISRDNAKNTVYLQMNSLKPEDTAVYYCAKRYYGSPQLRYYYWGQGTQVTVSS | high polyreactivity
QVQLVESGGGLVQAGGSLRLSCAASGRIFIVNAMGWYRQAPGKERELVAAIRTGGSNTYYADSVKGRFTISRDNAKNTVSLQMTSLKPEDTAVYYCNARSTRRINYWGQGTQVTVSS | high polyreactivity

Sequence | polyreactivity (PSR sort gate)
QVQLVESGGGLVQAGGSLRLSCAASGRIFIYNAMGWYRQAPGKERELVAAISVSGGRTYYADSVKGRFTISRDNAKNTVYLQMNSLKPEDTAVYYCNKVRVGSLRGYWGQGTQVTVSS | high polyreactivity
QVQLVESGGGLVQAGGSLRLSCAASGRIFIYNAMGWYRQAPGKETELVAAISSGGDTYYADSVKGRFTISRDNAKNTVYLQMNSLKPEDTAVYYCAARVYRYRGYDSWGQGTQVTVSS | high polyreactivity
QVQLVESGGGLVQAGGSLRLSCAASGRIFKGNGMGWYRQAPGKERELVAAISSGGTYYADSVKGRFTISRDNAKNTVYLQMNSLKPEDTAVYYCAAQHRGVQVTFGEYDYWGQGTQVTVSS | low polyreactivity
QVQLVESGGGLVQAGGSLRLSCAASGRIFKGYAMGWYRQAPGKERELVAAITISGGSTYYADSVKGRFTISRDNAKNTVYLQMNSLKPEDTAVYYCAARKFVYWYGMEYWGQGSQVTVSS | low polyreactivity
QVQLVESGGGLVQAGGSLRLSCAASGRIFKNYAMGWYRQAPGKERELVAAISWSGGRTYYADSVKGRFTISRDYAKNTVYLQMNSLKPEDTAVYYCASAARRGPTSIEPFGYGSWGQGTQVTVSS | high polyreactivity
QVQLVESGGGLVQAGGSLRLSCAASGRIFKPYALGWYRPAPGKERELVAALSWTGGRTRYADSVKGRFTISRDNAMNTVYLQMNSLKPEDTAVYYCAAYAIVRSYFIYDYWGQGTQVTVSS | high polyreactivity
QVQLVESGGGLVQAGGSLRLSCAASGRIFKRNAMGWYRQAPGKERELVAAISYSGGSTYYADSVKGRFTISRDNAKNTVYLQMNSLKPEDTAVYYCAAKYRPRGKSSWPYRRYDYWGQGTQVTVSS | high polyreactivity
QVQLVESGGGLVQAGGSLRLSCAASGRIFKRNTLGWYRQAPGKERELVAAITNSGITYYADSVKGRFTISRDNAKNTVYLQMNSLKPEDTAVYYCAARVIYYYGSGPYDYWGQGTQVTVSS | low polyreactivity
QVQLVESGGGLVQAGGSLRLSCAASGRIFKRNVMGWYRQAPGKERELVAAITLRGGSTYYADSVKGRFTISRDNAKNTVYLQMNSLKPEDTAVYYCAAVQGTYYWDDYWGQGTQVTVSS | low polyreactivity
QVQLVESGGGLVQAGGSLRLSCAASGRIFKRYVMGWYRQAPGKERELVAAISVRGASTYYADSVKGRFTISRDNAKNTVSLQMNSLKPEDTAVYYCATAGYRLLDYWGQGTQVTVSS | high polyreactivity
QVQLVESGGGLVQAGGSLRLSCAASGRIFKSNAMGWYRQAPGKERELVASISRSGSTNYADSVKGRFTLSRDNAKNTVYLQMNSLKPEDTAVYYCAKDPDAKGGGYDYWGQGTQVTVSS | low polyreactivity
QVQLVESGGGLVQAGGSLRLSCAASGRIFKSYAMGWYRQAPGKERELVAIIRSSGTTYYADSVKGRFTISRDNAKNTVYLQMNSLKPEDTAVYYCNADGYPLGDKYDYWGQGTQVTVSS | high polyreactivity
QVQLVESGGGLVQAGGSLRLSCAASGRIFKSYAMGWYRQAPGKERELVATISISGGSTYYADSVKGRFTISRDNAKNTVYLQMNSLKPEDTAVYYCAADRYGLGDYDYWGQGTQVTVSS | low polyreactivity
QVQLVESGGGLVQAGGSLRLSCAASGRIFKSYVMGWYRQAPGKERELVAAISITGGSTYYADSVKGRFTISRDNAKNTVYLQMNSLKPEDTAVYYCAAGRSGQEDDYWGQGTQVTVSS | high polyreactivity
QVQLVESGGGLVQAGGSLRLSCAASGRIFKTNAMGWYRQAPGKERELVAAITWSGTSTYYADSVKWRYTISRDNEKITVYLQMNSLKPEDTAVYYCDAKQYARKYGFWGQGTQVTVSS | high polyreactivity
QVQLVESGGGLVQAGGSLRLSCAASGRIFKVNTMGWYRQAPGKERELVASIRGGGSTNYADSVKGRFTISRDNAKNTVFLQMNSLKPEDTAVYYCAVGPNSVGNRSYGFDYWGQGTQVTVSS | low polyreactivity
QVQLVESGGGLVQAGGSLRLSCAASGRIFKVNTMGWYRQAPGKERELVASIRGGGSTNYADSVKGRFTISRDNAKNTVYLQMNSLKPEDTAVYYCAAGTSKPTPIYGYWGQGTQVTVSS | low polyreactivity
QVQLVESGGGLVQAGGSLRLSCAASGRIFKVYAMGWYRQAPGKERELVAAINWSTGSTYYADSVKGRFTISRDNAKNTVYLQMNSLKPEDTAVYYCAAKNLYSYDWGQGTQVTVSS | high polyreactivity
QVQLVESGGGLVQAGGSLRLSCAASGRIFKVYAMGWYRQAPGKERELVASIRWNTGSTYYADSVKGRFTISRDNAKNSVYLQMNSLKPEDTAVYYCAATDWWGYYYWGQGTQVTVSS | high polyreactivity
QVQLVESGGGLVQAGGSLRLSCAASGRIFKWYAMGWSRQAPGKERELVAAITSGGSTYYADSVKGRFTISRDNAKNTVYVQMNSLKPEDTAVYYCNRYGVHRRDDYWGQGTQVTVSS | high polyreactivity
